From PMC4131897 (Biochemistry, 2014)

Tests used:
[1] = target: T1, BjPutA (proline utilization A) (Bradyrhizobium diazoefficiens, UniProt Q89E26); test: coupled PRODH-P5CDH assay, NADH formation at […] nm, substrate inhibition fit; assay type: biochemical; conditions: 0.1 mM CoQ1, 0.2 mM NAD+, 50 mM potassium phosphate pH 7.5, 25 mM NaCl
T1 sequence (Q89E26 1-999): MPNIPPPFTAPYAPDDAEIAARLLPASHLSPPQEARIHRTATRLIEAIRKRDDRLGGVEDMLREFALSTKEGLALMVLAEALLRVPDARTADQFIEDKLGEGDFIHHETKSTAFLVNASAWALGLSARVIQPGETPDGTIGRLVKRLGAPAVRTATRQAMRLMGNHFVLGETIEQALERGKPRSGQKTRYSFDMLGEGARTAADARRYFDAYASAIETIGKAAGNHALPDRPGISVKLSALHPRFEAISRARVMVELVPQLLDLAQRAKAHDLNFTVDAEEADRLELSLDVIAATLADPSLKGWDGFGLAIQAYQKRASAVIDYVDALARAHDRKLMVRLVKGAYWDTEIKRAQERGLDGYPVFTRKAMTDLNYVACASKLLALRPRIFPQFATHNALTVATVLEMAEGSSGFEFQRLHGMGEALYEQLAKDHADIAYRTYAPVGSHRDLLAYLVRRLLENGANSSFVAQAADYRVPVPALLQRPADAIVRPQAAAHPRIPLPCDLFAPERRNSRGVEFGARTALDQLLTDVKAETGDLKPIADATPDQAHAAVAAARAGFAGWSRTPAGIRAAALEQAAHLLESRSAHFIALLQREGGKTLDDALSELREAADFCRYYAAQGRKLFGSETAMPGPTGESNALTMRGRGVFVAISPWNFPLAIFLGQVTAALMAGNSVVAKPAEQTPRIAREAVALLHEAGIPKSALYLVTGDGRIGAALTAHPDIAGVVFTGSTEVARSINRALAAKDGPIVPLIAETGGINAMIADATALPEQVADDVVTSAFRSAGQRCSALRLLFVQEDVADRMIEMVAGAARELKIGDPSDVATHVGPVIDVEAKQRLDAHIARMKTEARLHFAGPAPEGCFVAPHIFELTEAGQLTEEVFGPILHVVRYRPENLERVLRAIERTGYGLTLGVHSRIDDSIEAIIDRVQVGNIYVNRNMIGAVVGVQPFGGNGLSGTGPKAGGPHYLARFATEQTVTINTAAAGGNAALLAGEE

purified protein [2] = substrate: COC1=C(OC)C(=O)C(CC=C(C)C)=C(C)C1=O; test: purified protein; conditions: 150 mM proline, 50 mM potassium phosphate pH 7.5, 23 °C
purified protein [3] = substrate: O=C(O)[C@@H]1CCCN1; test: purified protein; conditions: 250 μM CoQ1, 50 mM potassium phosphate pH 7.5, 23 °C

O=C(O)[C@@H]1CCCN1 [proline]
Ki [1]: 24 ± 12 mM

B1: BjPutA (proline utilization A) (Bradyrhizobium diazoefficiens USDA 110) (protein)
chain: T1 sequence (Q89E26 1-999)
Km (purified protein [2]): 0.105 ± 0.006 mM | kcat (purified protein [2]): 2.9 ± 0.1 s⁻¹ | kcat/Km (purified protein [2]): 27600 ± 1710 M⁻¹ s⁻¹ | Km (purified protein [3]): 43 ± 5 mM | kcat (purified protein [3]): 3.1 ± 0.1 s⁻¹ | kcat/Km (purified protein [3]): 72 ± 8.6 M⁻¹ s⁻¹
